Results as given in IntAct's records for PubMed 16946707.

B1: Dynamin-1 (Homo sapiens), Q05193 (parent)
chain: MGNRGMEDLIPLVNRLQDAFSAIGQNADLDLPQIAVVGGQSAGKSSVLENFVGRDFLPRGSGIVTRRPLVLQLVNATTEYAEFLHCKGKKFTDFEEVRLEIEAETDRVTGTNKGISPVPINLRVYSPHVLNLTLVDLPGMTKVPVGDQPPDIEFQIRDMLMQFVTKENCLILAVSPANSDLANSDALKVAKEVDPQGQRTIGVITKLDLMDEGTDARDVLENKLLPLRRGYIGVVNRSQKDIDGKKDITAALAAERKFFLSHPSYRHLADRMGTPYLQKVLNQQLTNHIRDTLPGLRNKLQSQLLSIEKEVEEYKNFRPDDPARKTKALLQMVQQFAVDFEKRIEGSGDQIDTYELSGGARINRIFHERFPFELVKMEFDEKELRREISYAIKNIHGIRTGLFTPDMAFETIVKKQVKKIREPCLKCVDMVISELISTVRQCTKKLQQYPRLREEMERIVTTHIREREGRTKEQVMLLIDIELAYMNTNHEDFIGFANAQQRSNQMNKKKTSGNQDEILVIRKGWLTINNIGIMKGGSKEYWFVLTAENLSWYKDDEEKEKKYMLSVDNLKLRDVEKGFMSSKHIFALFNTEQRNVYKDYRQLELACETQEEVDSWKASFLRAGVYPERVGDKEKASETEENGSDSFMHSMDPQLERQVETIRNLVDSYMAIVNKTVRDLMPKTIMHLMINNTKEFIFSELLANLYSCGDQNTLMEESAEQAQRRDEMLRMYHALKEALSIIGDINTTTVSTPMPPPVDDSWLQVQSVPAGRRSPTSSPTPQRRAPAVPPARPGSRGPAPGPPPAGSALGGAPPVPSRPGASPDPFGPPPQVPSRPNRAPPGVPSRSGQASPSRPESPRPPFDL
partner: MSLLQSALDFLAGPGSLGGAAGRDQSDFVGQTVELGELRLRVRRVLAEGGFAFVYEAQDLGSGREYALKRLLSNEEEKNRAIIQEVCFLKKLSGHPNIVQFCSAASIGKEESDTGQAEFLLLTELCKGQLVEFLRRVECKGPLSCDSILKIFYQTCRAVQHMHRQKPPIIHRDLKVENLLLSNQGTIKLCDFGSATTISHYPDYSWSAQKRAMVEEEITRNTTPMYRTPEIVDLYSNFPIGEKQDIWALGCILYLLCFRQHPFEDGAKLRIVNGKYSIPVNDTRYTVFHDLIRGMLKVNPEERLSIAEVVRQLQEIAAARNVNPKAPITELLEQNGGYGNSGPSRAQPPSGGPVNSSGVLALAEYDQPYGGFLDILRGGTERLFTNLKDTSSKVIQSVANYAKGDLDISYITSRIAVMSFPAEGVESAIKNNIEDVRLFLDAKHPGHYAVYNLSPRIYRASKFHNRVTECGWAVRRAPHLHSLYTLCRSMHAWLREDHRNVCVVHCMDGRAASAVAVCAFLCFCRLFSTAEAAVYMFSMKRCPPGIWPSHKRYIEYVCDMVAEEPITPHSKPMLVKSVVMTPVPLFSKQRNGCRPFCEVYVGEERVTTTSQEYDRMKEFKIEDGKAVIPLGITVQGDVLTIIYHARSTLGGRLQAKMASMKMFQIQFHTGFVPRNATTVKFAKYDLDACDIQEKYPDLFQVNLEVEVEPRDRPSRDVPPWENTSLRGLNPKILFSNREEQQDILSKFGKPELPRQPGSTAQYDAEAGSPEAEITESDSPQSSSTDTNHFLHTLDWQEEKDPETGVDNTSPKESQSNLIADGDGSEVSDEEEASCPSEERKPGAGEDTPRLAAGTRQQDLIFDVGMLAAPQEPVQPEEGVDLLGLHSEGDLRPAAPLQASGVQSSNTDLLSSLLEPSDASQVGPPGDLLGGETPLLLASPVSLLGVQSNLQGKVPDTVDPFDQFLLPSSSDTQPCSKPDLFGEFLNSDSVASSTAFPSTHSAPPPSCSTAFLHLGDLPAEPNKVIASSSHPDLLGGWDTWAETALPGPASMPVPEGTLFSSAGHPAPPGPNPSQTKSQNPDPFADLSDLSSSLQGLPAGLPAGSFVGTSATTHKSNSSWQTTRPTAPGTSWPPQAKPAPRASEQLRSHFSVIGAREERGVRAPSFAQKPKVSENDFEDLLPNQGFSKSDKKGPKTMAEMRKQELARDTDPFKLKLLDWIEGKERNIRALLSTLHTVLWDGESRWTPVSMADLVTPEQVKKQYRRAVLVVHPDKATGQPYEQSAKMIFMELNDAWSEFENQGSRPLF

Variants of: B1
Details: with gak_rat Gak

Row | effect of a mutation on the interaction | Variant
1 | increasing interaction | K694A
2 | disrupting interaction | I690K
